Reference: the RNAGym collection of RNA variant scans (doi:10.1093/molbev/msab373)

B1: Azoarcus group I ribozyme (parent)
chain: GUGCCUUGCGCCGGGAAACCACGCAAGGGAUGGUGUCAAAUUCGGCGAAACCUAAGCGCCCGCCCGGGCGUAUGGCAACGCCGAGCCAAGCUUCGGCGCCUGCGCCGAUGAAGGUGUAGAGACUAGACGGCACCCACCUAAGGCAAACGCUAUGGUGAAGGCAUAGUCCAGGGAGUGGCGAAAGUCACACAAACCGG

Variants of: B1
Experiment: reverse-splicing fitness (ratio to wild type); higher = more active; in vitro selection; Mg2+ level not given
How it was run: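 An in vitro group I ribozyme library with randomized positions was T7-transcribed and gel-purified. In triplicate, 10 pmol RNA in EPPS pH 7.5 was reacted with 50 pmoles of a 30-nt RNA substrate for 1 h at 37 °C across several added MgCl2 levels (1–48 mM), then stopped with EDTA. Products were reverse transcribed from a substrate-complementary primer, PCR-amplified and sequenced (HiSeq 4000). Fitness is a variant's read proportion after selection over that before, normalised to wild type.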

Variant	reverse-splicing fitness
C82G A111U A145U C169U U176C	0.0128
C82G A120C A145G C150A C169G U176G	0.0054
C82G A120C A145G C150A C169G U176A	0.0184
C82G A120C A145G C150A C169G U176C	0.0256
C82G A120C A145G C150G C169G	0.00813
C82G A120C A145G C150G C169A	0.0104
C82G A120C A145G C150G C169U	0.0121
C82G A111U A145U C150A C169A U176C	0.0126
C82G A111U A145U C150A C169A U176G	0.00732
C82G A111U A145U C150A C169A U176A	0.0149
C82G A120C A145C C150G C169A U176G	0.00496
C82G A120C A145C C150G C169A U176A	0.0101
C82G A120C A145C C150G C169A U176C	0.00752
C82G A120C A145C C150A C169U	0.00799
C82G A120C A145C C150A C169G	0.00715
C82G A120C A145C C150A C169A	0.00726
C82G A120C A145G C169A U176C	0.0247
C82G A120C A145G C169A U176G	0.00477
C82G A120C A145G C169A U176A	0.0209
C82G A111U A145G C150U U176G	0.0447
C82G A111U A145G C150U U176C	0.196
C82G A111U A145G C150U U176A	0.144
C82G A120C A145U C150G U176G	0.00444
C82G A120C A145U C150G U176A	0.00942

Variant	reverse-splicing fitness
C82G A120C A145U C150G U176C	0.0164
C82G A111U C150U C169G U176C	0.0169
C82G A111U C150U C169G U176A	0.0149
C82G A111U C150U C169G U176G	0.00689
C82G A111U C150G C169A U176A	0.011
C82G A111U C150G C169A U176G	0.00732
C82G A111U C150G C169A U176C	0.0132
C82G A120C A145U C169G U176A	0.0121
C82G A120C A145U C169G U176C	0.0138
C82G A120C A145U C169G U176G	0.00368
C82G A120C A145U C150A U176G	0.00735
C82G A120C A145U C150A U176A	0.0188
C82G A120C A145U C150A U176C	0.0216
C82G A111U A145U U176G	0.0842
C82G A111U A145U U176C	0.246
C82G A111U A145U U176A	0.211
C82G A111U A145U C150A C169U U176G	0.00579
C82G A111U A145U C150A C169U U176A	0.0141
C82G A111U A145U C150A C169U U176C	0.0129
C82G A111U A145U C150G U176A	0.0141
C82G A111U A145U C150G U176C	0.0254
C82G A111U A145U C150G U176G	0.0057
C82G A111U A145U C150G C169U U176C	0.0115
C82G A111U A145U C150G C169U U176A	0.00836

Variant	reverse-splicing fitness
C82G A111U A145U C150G C169U U176G	0.00664
C82G A120C A145U C150U C169U U176A	0.0152
C82G A120C A145U C150U C169U U176G	0.00456
C82G A120C A145U C150U C169U U176C	0.0148
C82G A120C A145C C150A C169A U176A	0.0154
C82G A120C A145C C150A C169A U176G	0.00522
C82G A120C A145C C150A C169A U176C	0.00645
C82G A111U A145U C150G	0.0323
C82G A111U A145U C150A	0.0284
C82G A111U A145U C150U	0.239
C82G A111U A145U	0.387
C82G A120C	0.208
C82G A120C A145U C150A C169U U176G	0.00492
C82G A120C A145U C150A C169U U176C	0.013
C82G A120C A145U C150A C169U U176A	0.0151
C82G A120C A145C C150U C169U	0.0122
C82G A120C A145C C150U C169G	0.00749
C82G A120C A145C C150U C169A	0.008
C82G A120C A145G C150A U176A	0.0196
C82G A120C A145G C150A U176G	0.0102
C82G A120C A145G C150A U176C	0.034
C82G A111U C150G C169G	0.00744
C82G A111U C150G C169U	0.0102
C82G A111U C150G C169A	0.0104

Variant	reverse-splicing fitness
C82G A111U A145U C150U C169U U176C	0.0136
C82G A111U A145U C150U C169U U176A	0.0142
C82G A111U A145U C150U C169U U176G	0.00609
C82G A111U C150G C169G U176C	0.00587
C82G A111U C150G C169G U176G	0.00662
C82G A111U C150G C169G U176A	0.0074
C82G A111U C150A U176G	0.0138
C82G A111U C150A U176C	0.0357
C82G A111U C150A U176A	0.025
C82G A111U A145G C169G U176C	0.0258
C82G A111U A145G C169G U176G	0.00557
C82G A111U A145G C169G U176A	0.0187
C82G A120C A145C C150A C169U U176G	0.0044
C82G A120C A145C C150A C169U U176C	0.0101
C82G A120C A145C C150A C169U U176A	0.0134
C82G A111U U176A	0.214
C82G A111U U176C	0.259
C82G A111U U176G	0.0695
C82G A111U C150U C169A	0.0106
C82G A111U C150U C169G	0.00914
C82G A111U C150U C169U	0.0118
C82G A120C A145U C150A C169G	0.00739
C82G A120C A145U C150A C169U	0.00929
C82G A120C A145U C150A C169A	0.00989

Variant	reverse-splicing fitness
C82G A120C A145G C150A C169U U176C	0.0165
C82G A120C A145G C150A C169U U176G	0.00589
C82G A120C A145G C150A C169U U176A	0.0145
C82G A111U A145U C169G U176C	0.0128
C82G A111U A145U C169G U176G	0.00618
C82G A111U A145U C169G U176A	0.0122
C82G A111U C150U U176G	0.0348
C82G A111U C150U U176C	0.131
C82G A111U C150U U176A	0.0918
C82G A120C A145G C169U U176A	0.017
C82G A120C A145G C169U U176G	0.00453
C82G A120C A145G C169U U176C	0.0174
C82G A111U A145G C169U U176G	0.00532
C82G A111U A145G C169U U176A	0.0134
C82G A111U A145G C169U U176C	0.0155
C82G A120C A145U C150U C169G U176C	0.015
C82G A120C A145U C150U C169G U176G	0.0044
C82G A120C A145U C150U C169G U176A	0.0139
C82G A120C A145G C150U C169G U176A	0.0139
C82G A120C A145G C150U C169G U176G	0.00538
C82G A120C A145G C150U C169G U176C	0.0205
C82G A111U A145U C150A C169G U176A	0.014
C82G A111U A145U C150A C169G U176G	0.0066
C82G A111U A145U C150A C169G U176C	0.0144

Variant	reverse-splicing fitness
C82G A120C A145U C150U C169U	0.0172
C82G A120C A145U C150U C169A	0.00933
C82G A120C A145U C150U C169G	0.00838
C82G A120C A145C C150G C169G U176G	0.00536
C82G A120C A145C C150G C169G U176A	0.0101
C82G A120C A145C C150G C169G U176C	0.00954
C82G A120C A145U C150G C169U	0.0102
C82G A120C A145U C150G C169G	0.00766
C82G A120C A145U C150G C169A	0.00974
C82G A120C A145C C169A U176A	0.0137
C82G A120C A145C C169A U176C	0.0062
C82G A120C A145C C169A U176G	0.00378
C82G A120C A145C C169U	0.0218
C82G A120C A145C C169A	0.00704
C82G A120C A145C C169G	0.00864
C82G A120C A145G C150U C169A U176G	0.0065
C82G A120C A145G C150U C169A U176C	0.0158
C82G A120C A145G C150U C169A U176A	0.0194
C82G A120C A145G U176C	0.103
C82G A120C A145G U176A	0.0722
C82G A120C A145G U176G	0.0158
C82G A120C A145U C169A	0.00673
C82G A120C A145U C169G	0.0068
C82G A120C A145C C150A U176A	0.012

Variant	reverse-splicing fitness
C82G A120C A145C C150A U176G	0.0054
C82G A120C A145C C150A U176C	0.0118
C82G A120C A145G C150G C169A U176A	0.0143
C82G A120C A145G C150G C169A U176C	0.0145
C82G A120C A145G C150G C169A U176G	0.00912
C82G A111U A145U C169A U176A	0.0121
C82G A111U A145U C169A U176C	0.011
C82G A111U A145U C169A U176G	0.00626
C82G A111U C169U U176C	0.0158
C82G A111U C169U U176G	0.00639
C82G A111U C169U U176A	0.0177
C82G A120C A145U C150G C169A U176C	0.0102
C82G A120C A145U C150G C169A U176G	0.00473
C82G A120C A145U C150G C169A U176A	0.0119
C82G A120C A145G C150A C169A U176A	0.0227
C82G A120C A145G C150A C169A U176C	0.0236
C82G A120C A145G C150A C169A U176G	0.00671
C82G A111U C150U C169A U176C	0.0148
C82G A111U C150U C169A U176G	0.00647
C82G A111U C150U C169A U176A	0.0188
C82G A111U A145U C150A C169A	0.0096
C82G A111U A145U C150A C169U	0.00955
C82G A111U A145U C150A C169G	0.00845
